Data from patent US8933202B2, “AXL antibodies” (U3 Pharma GmbH, priority 2007, dated 2015).

Experiments:
[1] = tested on: NCI-H292 lung cancer cells; test: Wound healing/scratch assay; format: cell-based, human; conditions: 10 μg/ml antibody, 24 h, compared to isotypic control antibody
Description: To examine the migration and proliferation rates of different cells and culture conditions, in vitro wound healing/scratch assays are being employed for many years. These assays generally involve growing a confluent cell monolayer first. A small area is then disrupted and a group of cells are being destroyed or displaced by scratching a line through the layer with, for example, a pipette tip. The open gap is then inspected microscopically over time as the cells move in and fill the damaged area (“healing”). In brief, 1.5×10^6 NCI-H292 lung cancer cells were seeded per well of a 12 well dish and cultured in normal growth medium (RPMI, 10% FCS). After 8 h, cells were rinsed with PBS and starved in low serum medium (RPMI, 0.5% FCS) over night for 24 h. Using a sterile 200 μl pipette tip, three separate uniform wounds per well were scratched through the confluent NCI-H292 cell monolayers. […] Cells were permitted to migrate into the area of clearing for 24 h, washed once with PBS and fixed with ice cold Methanol (100%) at −20° C. After cells were stained with crystal violet (0.5% in 20% Methanol), rinsed with water and dried over night, photos of the wounds were taken.

[2] = tested on: p42/p44 MAP-Kinase; test: p42/p44 MAP-Kinase phosphorylation ELISA; format: cell-based, human; conditions: 10 μg/ml antibody, 400 ng/ml Gas6; CaSki cervical cancer cells
Method: Next, ELISA experiments were performed in order to investigate whether the rat anti-AXL antibodies of the invention are able to block ligand Gas6-mediated activation of p42/p44 MAP-Kinase. Gas6-mediated p42/p44 MAP-Kinase activation was detected by increased protein (Thr202/Tyr204) phosphorylation. In brief, on the first day, 2×10^4 cells per well were seeded in flat-bottom 96 well plates. The next day, normal growth medium was replaced by serum-free medium to starve cells for 36 h. […] Medium was flicked out and cells were fixed with 4% formaldehyde in PBS (pH 7.5) for 30 min at room temperature. Formaldehyde solution was removed and cells were washed twice with wash buffer (PBS, 0.1% Tween 20). Cells were quenched with 1% H2O2, 0.1% NaN3 in wash buffer and incubated for 20 min at room temperature. Afterwards, the quenching solution was removed, and cells were washed twice with wash buffer and blocked with PBS, 0.5% BSA for 4 h at 4° C. Anti-phospho-p42/p44 MAP Kinase (Thr202/Tyr204) primary antibody (polyclonal rabbit; Cell Signaling #9101) diluted 1:500 in PBS, 0.5% BSA, 5 mM EDTA was added over night at 4° C. On day 4, the antibody solution was removed and the plate was washed 3× with wash buffer. […] Tetramethylbenzidine (TMB, Calbiochem) was added and monitored at 620 nm.

[3] = tested on: serum-starved NIH3T3-AXL cl.7 fibroblasts; test: Caspase-3/7 assay, Gas6-mediated anti-apoptosis; format: cell-based; conditions: 10 μg/ml antibody, with or without 400 ng/ml Gas6, compared to isotypic control antibody
Description: Induction of apoptosis and activation of caspases can result from a variety of stimuli including growth factor withdrawal, exposure to chemotherapeutic agents or radiation, or initiation of the Fas/Apo-1 receptor-mediated cell death process. […] In the present example we examined whether rat anti-AXL antibodies of the invention interfere with Gas6-mediated anti-apoptosis of serum-starved NIH3T3-AXL cl.7 fibroblasts, and thus induce apoptosis. Apoptosis rates were thereby determined by measurement of the cellular caspase-3/7 activity. For this purpose, NIH3T3-AXL cl.7 cells were seeded at a density of 1.5×10^3 cells per well in black clear-bottom 96 well plates (100 μl/well). The day after, normal growth medium was replaced by serum-reduced medium (DMEM, 0.5% FCS) to starve cells over night for 24 h. […] The cells were washed with PBS, covered with 60 μl of DMEM, 0% FCS, 0.01% BSA, and 10 μl of the respective antibody solution were added. After 1 h incubation at 37° C., 10 μl of DMEM, 0% FCS, 0.01% BSA with or without 3.2 μg/ml mouse Gas6 (R&D Systems) were added (the final concentrations of antibody and Gas6 were 10 μg/ml and 400 ng/ml, respectively), and cells were incubated at 37° C. for another 5 h. […] Using a Victor plate reader (Perkin Elmer), the fluorescence of each well was measured at an excitation wavelength of 485 nm and an emission wavelength of 530 nm.

B1: 11B7: antagonistic rat anti-AXL monoclonal antibody, rat IgG1 (antibody, V domains shown)
VL: DIQMTQAPSSLPASLGDRVTITCRASQDIGNYLRWFQQKPGKSPRLMISGATNLAAGVPSRFSGSRSGSDYSLTISSLESEDMADYYCLQSKESPWTFGGGTKLELK
VH: EVQLQESGPGLVKPSQSLSLTCSVTGYSITSNYWGWIRKFPGDKMEWMGYITYSGSTSYNPSLKSRISITRDTSKNQFFLQLNSVTSEDTATYYCAITTFYYWGQGVMVTVSS
re-population of the cleared area (wound closure) [1]: reduced the re-population of the cleared area | ligand-mediated p42/p44 MAP-Kinase activation (phosphorylation) [2]: able to reduce ligand-mediated p42/p44 MAP-Kinase activation | anti-apoptosis (caspase-3/7 activity) [3]: reduced Gas6-mediated anti-apoptosis
